The values below come from patent publication US20200317768A1 (published 2020).

Where a chain is given by its changes, count along the chain named. Names may count otherwise.

Common to all, as to assay: SPR 25C; FcgR bound per captured antibody, relative to parent B3
The target in experiment [1] is T1, human FcγRIIaH extracellular domain, C-terminal His-tag (human, UniProt P12318 34-217).
T1 construct: also called human FcγRIIa (type H); FcgRIIaH
T1 sequence: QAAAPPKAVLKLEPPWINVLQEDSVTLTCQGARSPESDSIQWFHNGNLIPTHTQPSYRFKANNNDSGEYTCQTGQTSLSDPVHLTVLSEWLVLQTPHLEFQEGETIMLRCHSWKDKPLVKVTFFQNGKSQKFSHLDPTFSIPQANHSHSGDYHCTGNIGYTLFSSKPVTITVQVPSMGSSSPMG
On the procedure:
(§1) These Fc variants are referred to as B3 variants. B3 variants were expressed and the binding of protein-A purified antibodies to each FcγR (FcγRIIa type H. FcγRIIa type R, FcγRIIb, and FcγRIIIaF) was comprehensively evaluated as follows. Analysis of interaction between each altered antibody and the Fcγ receptor prepared as mentioned above was carried out using BIACORE® T100 (GE Healthcare), BIACORE® T200 (GE Healthcare), BIACORE® A100, or BIACORE® 4000. HBS-EP+(GE Healthcare) was used as the running buffer, and the measurement temperature was set to 25° C. Chips produced by immobilizing Protein A (Thermo Scientific), Protein A/G (Thermo Scientific), or Protein L (ACTIGEN or BioVision) by the amine coupling method to a Series S sensor Chip CM5 or CM4 (GE Healthcare) were used. After capturing of antibodies of interest onto these sensor chips, an Fcγ receptor diluted with the running buffer was allowed to interact, the amount bound to an antibody was measured. However, since the amount of Fcγ receptor bound depends on the amount of the captured antibodies, the amount of Fcγ receptor bound was divided by the amount of each antibody captured to obtain corrected values, and these values were compared. Furthermore, antibodies captured onto the chips were washed by 10 mM glycine-HCl pH1.5, and the chips were regenerated and used repeatedly. […] The value obtained by multiplying this value by 100 was used as an indicator of the relative FcγR-binding activity of each variant.

For experiment [2], the target named is T2, human FcγRIIaR extracellular domain, C-terminal His-tag (human, UniProt P12318 34-217).
T2 construct: also called human FcγRIIa (type R); FcgRIIaR
T2 chain: T1 sequence with H134R
How it is done: as §1

Experiment [3] deals with T3, human FcγRIIb extracellular domain, C-terminal His-tag (human, UniProt P31994 43-217).
T3 construct: also called FcgRIIb (human)
T3 sequence: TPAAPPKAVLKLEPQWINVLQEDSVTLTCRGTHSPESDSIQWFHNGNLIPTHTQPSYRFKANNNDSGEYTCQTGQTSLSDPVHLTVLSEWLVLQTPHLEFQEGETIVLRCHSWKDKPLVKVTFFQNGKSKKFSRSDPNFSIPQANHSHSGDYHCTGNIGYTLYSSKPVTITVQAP
On the procedure: as §1

B1: GpH7-B3 variant G236N/GpL16-k0 (antibody, human IgG1, kappa)
heavy: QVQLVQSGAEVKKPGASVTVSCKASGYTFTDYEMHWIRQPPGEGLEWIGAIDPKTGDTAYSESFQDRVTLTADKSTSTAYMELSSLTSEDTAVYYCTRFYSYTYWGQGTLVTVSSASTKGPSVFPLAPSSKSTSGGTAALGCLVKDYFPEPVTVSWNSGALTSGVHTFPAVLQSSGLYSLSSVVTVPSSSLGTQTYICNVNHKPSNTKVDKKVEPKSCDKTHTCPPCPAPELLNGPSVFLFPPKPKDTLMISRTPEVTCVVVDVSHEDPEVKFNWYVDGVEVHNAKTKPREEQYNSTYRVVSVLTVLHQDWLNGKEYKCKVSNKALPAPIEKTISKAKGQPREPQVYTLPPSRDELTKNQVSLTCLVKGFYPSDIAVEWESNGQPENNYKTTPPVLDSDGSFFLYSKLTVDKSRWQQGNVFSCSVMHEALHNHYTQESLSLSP
light: DIVMTQSPLSLPVTPGEPASISCQASESLVHSNRNTYLHWYLQKPGQSPQLLIYKVSNRFSGVPDRFSGSGSGTDFTLKISRVEAEDVGVYYCSQNTHVPPTFGQGTKVEIERTVAAPSVFIFPPSDEQLKSGTASVVCLLNNFYPREAKVQWKVDNALQSGNSQESVTEQDSKDSTYSLSSTLTLSKADYEKHKVYACEVTHQGLSSPVTKSFNRGEC
Regarding B1, the “Binding to human FcgRs (parent B3 = 100)” value came to 54 parent B3 = 100 in experiment [1], 81 parent B3 = 100 in experiment [2] and 75 parent B3 = 100 in experiment [3].

B2: GpH7-B3 variant H268D/GpL16-k0 (antibody, human IgG1, kappa)
heavy: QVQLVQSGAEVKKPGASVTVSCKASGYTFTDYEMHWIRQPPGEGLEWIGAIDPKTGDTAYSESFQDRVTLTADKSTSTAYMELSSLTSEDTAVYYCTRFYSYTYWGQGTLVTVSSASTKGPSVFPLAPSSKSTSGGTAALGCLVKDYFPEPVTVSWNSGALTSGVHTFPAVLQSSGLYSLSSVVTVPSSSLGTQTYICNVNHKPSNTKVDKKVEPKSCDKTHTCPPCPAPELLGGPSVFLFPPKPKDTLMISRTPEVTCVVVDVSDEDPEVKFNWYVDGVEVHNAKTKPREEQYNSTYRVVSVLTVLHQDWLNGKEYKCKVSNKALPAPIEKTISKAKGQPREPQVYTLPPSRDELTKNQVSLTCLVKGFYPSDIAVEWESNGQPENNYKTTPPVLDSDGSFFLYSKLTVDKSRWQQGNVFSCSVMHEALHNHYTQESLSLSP
light: B1 light
On to B2, for which the “Binding to human FcgRs (parent B3 = 100)” value in experiment [1] came to 173 parent B3 = 100; in experiment [2], 142 parent B3 = 100; in experiment [3] it was 307 parent B3 = 100.

B3: GpH7-B3 variant G237D/GpL16-k0 (antibody, human IgG1, kappa)
heavy: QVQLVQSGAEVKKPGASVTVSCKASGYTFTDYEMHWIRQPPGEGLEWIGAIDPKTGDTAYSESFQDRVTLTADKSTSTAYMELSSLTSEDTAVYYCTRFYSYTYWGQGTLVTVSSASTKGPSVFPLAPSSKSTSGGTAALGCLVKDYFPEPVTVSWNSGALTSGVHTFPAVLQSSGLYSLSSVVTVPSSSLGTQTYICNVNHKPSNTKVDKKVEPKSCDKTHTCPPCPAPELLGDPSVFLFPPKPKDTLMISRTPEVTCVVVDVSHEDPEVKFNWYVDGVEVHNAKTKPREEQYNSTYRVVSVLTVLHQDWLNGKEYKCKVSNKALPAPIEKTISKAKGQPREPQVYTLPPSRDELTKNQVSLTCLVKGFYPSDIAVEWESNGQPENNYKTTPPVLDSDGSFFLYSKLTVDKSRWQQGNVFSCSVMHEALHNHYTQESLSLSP
light: B1 light
On to B3, for which the results for the “Binding to human FcgRs (parent B3 = 100)” value in experiment [1], in experiment [2] and in experiment [3] were 74 parent B3 = 100, 0 parent B3 = 100 and 95 parent B3 = 100, respectively.

B4: GpH7-B3 variant P271D/GpL16-k0 (antibody, human IgG1, kappa)
heavy: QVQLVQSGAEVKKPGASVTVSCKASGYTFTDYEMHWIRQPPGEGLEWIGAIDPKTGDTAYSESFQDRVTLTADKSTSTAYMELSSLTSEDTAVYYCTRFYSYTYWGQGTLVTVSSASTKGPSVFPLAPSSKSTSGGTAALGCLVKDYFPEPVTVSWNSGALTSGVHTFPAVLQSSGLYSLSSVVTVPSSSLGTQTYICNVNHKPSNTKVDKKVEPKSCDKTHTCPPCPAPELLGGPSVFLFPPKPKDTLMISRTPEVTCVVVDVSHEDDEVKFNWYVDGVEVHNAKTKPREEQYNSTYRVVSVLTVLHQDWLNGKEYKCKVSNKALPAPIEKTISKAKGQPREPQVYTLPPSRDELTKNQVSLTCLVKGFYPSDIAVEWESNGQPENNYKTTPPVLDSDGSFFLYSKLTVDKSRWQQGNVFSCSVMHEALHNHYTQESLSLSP
light: B1 light
As to B4, the “Binding to human FcgRs (parent B3 = 100)” value in experiment [2] amounted to 55 parent B3 = 100; in experiment [3], 110 parent B3 = 100.

B5: GpH7-B3 variant A327I/GpL16-k0 (antibody, human IgG1, kappa)
heavy: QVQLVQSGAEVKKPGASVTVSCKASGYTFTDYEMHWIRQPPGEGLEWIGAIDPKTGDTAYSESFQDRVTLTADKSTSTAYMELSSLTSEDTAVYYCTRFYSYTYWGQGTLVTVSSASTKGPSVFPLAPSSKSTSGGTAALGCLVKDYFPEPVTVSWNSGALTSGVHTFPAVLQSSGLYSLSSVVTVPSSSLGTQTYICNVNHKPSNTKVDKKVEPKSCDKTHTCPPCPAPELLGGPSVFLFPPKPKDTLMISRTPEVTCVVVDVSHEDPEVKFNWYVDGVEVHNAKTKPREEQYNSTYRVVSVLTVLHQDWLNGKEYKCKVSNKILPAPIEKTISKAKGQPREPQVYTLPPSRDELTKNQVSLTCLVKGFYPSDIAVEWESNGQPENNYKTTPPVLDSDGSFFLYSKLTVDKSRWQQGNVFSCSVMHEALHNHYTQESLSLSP
light: B1 light
As for B5, the results for the “Binding to human FcgRs (parent B3 = 100)” value in experiment [1], in experiment [2] and in experiment [3] were 37 parent B3 = 100, 12 parent B3 = 100 and 46 parent B3 = 100, respectively.

B6: GpH7-B3 variant S239P/GpL16-k0 (antibody, human IgG1, kappa)
heavy: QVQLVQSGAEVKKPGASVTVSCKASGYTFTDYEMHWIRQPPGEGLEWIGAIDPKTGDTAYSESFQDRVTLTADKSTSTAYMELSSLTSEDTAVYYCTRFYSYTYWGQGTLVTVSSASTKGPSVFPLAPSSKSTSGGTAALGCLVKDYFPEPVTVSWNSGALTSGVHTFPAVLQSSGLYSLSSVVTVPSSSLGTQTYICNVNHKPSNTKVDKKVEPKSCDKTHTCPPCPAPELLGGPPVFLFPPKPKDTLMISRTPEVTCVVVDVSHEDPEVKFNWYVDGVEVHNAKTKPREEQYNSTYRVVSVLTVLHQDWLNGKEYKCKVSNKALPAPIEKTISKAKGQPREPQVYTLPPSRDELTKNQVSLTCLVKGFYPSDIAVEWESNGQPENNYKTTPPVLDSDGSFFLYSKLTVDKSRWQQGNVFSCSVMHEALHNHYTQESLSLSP
light: B1 light
With B6, the “Binding to human FcgRs (parent B3 = 100)” value was determined as 49 parent B3 = 100 in experiment [1] and 61 parent B3 = 100 in experiment [3].

B7: GpH7-B3 variant P238Y/GpL16-k0 (antibody, human IgG1, kappa)
heavy: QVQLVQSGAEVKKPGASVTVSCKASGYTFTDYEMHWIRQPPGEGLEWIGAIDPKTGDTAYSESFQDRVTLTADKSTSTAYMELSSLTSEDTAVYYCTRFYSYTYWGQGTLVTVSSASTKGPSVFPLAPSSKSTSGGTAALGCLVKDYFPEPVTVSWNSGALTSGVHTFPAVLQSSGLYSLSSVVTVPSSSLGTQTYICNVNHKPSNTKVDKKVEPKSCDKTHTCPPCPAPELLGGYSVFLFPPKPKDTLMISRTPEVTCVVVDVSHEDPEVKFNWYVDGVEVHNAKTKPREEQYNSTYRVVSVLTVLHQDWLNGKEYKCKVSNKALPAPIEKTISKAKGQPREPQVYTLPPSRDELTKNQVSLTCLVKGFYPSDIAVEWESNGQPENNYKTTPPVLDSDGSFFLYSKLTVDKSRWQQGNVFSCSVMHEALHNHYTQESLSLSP
light: B1 light
Turning to B7, the “Binding to human FcgRs (parent B3 = 100)” value in experiment [1] was 93 parent B3 = 100; in experiment [3] it was 114 parent B3 = 100.

B8: GpH7-B3 variant G236S/GpL16-k0 (antibody, human IgG1, kappa)
heavy: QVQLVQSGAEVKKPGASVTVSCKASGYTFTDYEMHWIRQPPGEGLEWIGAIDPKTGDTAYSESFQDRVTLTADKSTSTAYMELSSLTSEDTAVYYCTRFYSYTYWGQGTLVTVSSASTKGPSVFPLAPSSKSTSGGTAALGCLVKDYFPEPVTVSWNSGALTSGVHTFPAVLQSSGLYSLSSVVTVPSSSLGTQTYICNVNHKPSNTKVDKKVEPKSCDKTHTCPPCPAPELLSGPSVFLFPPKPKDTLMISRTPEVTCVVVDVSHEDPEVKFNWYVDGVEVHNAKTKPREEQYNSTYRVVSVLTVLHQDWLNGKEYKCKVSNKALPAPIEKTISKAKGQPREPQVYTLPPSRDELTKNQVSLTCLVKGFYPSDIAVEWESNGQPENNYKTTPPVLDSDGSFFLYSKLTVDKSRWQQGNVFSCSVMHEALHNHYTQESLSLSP
light: B1 light
Consider B8, for which the “Binding to human FcgRs (parent B3 = 100)” value amounted to 147 parent B3 = 100 in experiment [1], 161 parent B3 = 100 in experiment [2] and 87 parent B3 = 100 in experiment [3].

B9: GpH7-B3 variant N325F/GpL16-k0 (antibody, human IgG1, kappa)
heavy: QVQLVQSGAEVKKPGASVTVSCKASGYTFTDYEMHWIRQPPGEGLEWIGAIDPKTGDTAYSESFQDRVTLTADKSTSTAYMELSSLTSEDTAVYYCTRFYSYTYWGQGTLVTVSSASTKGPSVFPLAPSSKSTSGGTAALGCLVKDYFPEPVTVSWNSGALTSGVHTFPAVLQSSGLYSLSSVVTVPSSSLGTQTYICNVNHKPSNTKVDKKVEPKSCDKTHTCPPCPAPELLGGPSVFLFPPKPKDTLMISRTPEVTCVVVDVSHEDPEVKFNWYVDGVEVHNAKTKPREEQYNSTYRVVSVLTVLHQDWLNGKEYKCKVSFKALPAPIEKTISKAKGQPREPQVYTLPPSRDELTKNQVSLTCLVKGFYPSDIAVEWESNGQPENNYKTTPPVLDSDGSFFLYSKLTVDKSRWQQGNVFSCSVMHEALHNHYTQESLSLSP
light: B1 light
As to B9, the “Binding to human FcgRs (parent B3 = 100)” value in experiment [1] worked out at 65 parent B3 = 100; in experiment [3], 72 parent B3 = 100.

B10: GpH7-B3 variant G236A/GpL16-k0 (antibody, human IgG1, kappa)
heavy: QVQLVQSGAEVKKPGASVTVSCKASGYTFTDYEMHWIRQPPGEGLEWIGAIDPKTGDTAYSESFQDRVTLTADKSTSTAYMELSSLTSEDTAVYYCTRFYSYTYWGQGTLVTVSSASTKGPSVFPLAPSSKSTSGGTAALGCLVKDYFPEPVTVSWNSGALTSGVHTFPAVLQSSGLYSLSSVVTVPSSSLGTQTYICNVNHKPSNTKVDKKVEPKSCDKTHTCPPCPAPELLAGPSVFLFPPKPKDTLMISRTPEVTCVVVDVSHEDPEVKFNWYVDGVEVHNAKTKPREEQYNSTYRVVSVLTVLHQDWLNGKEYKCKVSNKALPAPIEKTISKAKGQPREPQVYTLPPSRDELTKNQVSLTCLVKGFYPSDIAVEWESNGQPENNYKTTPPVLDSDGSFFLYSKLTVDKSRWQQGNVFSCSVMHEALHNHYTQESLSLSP
light: B1 light
Turning to B10, the “Binding to human FcgRs (parent B3 = 100)” value was 165 parent B3 = 100 in experiment [1], 168 parent B3 = 100 in experiment [2] and 94 parent B3 = 100 in experiment [3].

B11: GpH7-B3 variant G236D/GpL16-k0 (antibody, human IgG1, kappa)
heavy: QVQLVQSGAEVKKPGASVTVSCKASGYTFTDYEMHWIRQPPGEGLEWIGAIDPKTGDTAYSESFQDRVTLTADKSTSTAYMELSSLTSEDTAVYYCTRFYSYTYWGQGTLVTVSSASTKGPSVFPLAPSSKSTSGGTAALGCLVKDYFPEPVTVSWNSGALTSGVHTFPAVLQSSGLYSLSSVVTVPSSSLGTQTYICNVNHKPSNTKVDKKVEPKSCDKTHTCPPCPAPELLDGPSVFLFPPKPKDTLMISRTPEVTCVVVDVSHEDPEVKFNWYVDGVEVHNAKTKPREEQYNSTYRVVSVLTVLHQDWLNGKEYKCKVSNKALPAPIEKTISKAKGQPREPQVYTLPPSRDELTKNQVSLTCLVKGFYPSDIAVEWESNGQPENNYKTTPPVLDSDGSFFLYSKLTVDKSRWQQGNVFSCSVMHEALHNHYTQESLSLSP
light: B1 light
For the molecule B11, the “Binding to human FcgRs (parent B3 = 100)” value in experiment [1] came out at 109 parent B3 = 100; in experiment [2] it was 91 parent B3 = 100; in experiment [3], 212 parent B3 = 100.

B12: GpH7-B3 variant H268E/GpL16-k0 (antibody, human IgG1, kappa)
heavy: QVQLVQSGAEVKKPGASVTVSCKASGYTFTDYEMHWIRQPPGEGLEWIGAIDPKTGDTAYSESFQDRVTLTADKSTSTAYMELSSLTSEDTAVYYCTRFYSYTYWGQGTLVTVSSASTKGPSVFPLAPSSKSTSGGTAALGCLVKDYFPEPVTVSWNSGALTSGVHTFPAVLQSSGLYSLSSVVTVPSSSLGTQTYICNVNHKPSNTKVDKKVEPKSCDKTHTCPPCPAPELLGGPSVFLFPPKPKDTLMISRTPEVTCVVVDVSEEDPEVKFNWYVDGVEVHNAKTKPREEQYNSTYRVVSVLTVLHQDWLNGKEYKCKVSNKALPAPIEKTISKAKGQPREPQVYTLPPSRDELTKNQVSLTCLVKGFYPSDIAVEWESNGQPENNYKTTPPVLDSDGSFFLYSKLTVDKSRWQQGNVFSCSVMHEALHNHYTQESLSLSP
light: B1 light
For the molecule B12, the entries for the “Binding to human FcgRs (parent B3 = 100)” value in experiment [1], in experiment [2] and in experiment [3] were 169 parent B3 = 100, 132 parent B3 = 100 and 283 parent B3 = 100, respectively.

B13: GpH7-B3 variant G236E/GpL16-k0 (antibody, human IgG1, kappa)
heavy: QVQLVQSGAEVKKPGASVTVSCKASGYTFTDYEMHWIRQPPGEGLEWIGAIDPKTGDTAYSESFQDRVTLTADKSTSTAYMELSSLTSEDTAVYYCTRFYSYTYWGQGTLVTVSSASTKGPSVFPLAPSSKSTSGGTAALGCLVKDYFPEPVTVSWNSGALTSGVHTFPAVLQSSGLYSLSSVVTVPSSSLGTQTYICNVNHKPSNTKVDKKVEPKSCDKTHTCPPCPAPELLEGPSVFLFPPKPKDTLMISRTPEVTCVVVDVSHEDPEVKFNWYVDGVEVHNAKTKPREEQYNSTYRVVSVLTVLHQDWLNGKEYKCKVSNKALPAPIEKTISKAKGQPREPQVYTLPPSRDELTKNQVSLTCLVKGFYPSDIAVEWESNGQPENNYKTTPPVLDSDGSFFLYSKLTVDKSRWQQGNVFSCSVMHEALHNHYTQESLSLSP
light: B1 light
In the case of B13, the “Binding to human FcgRs (parent B3 = 100)” value in experiment [1] was determined as 142 parent B3 = 100; in experiment [2], 131 parent B3 = 100; in experiment [3], 117 parent B3 = 100.
